Assay results reported in patent publication US20220332804A1 (CSL INNOVATION, published 2022).
Numbering of substitutions follows the chain as printed.

Assays:
Assay in all cases: SPR, antibody captured, C2 as analyte;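 note: biacore SPR at 37 °C, anti-C2 mAbs captured via goat anti-human IgG on CM5 chips, double-referenced sensorgrams fit to a 1:1 kinetic or steady-state model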
[1] = target: T1, human C2 S428A (human, UniProt P06681 21-752)
T1 sequence: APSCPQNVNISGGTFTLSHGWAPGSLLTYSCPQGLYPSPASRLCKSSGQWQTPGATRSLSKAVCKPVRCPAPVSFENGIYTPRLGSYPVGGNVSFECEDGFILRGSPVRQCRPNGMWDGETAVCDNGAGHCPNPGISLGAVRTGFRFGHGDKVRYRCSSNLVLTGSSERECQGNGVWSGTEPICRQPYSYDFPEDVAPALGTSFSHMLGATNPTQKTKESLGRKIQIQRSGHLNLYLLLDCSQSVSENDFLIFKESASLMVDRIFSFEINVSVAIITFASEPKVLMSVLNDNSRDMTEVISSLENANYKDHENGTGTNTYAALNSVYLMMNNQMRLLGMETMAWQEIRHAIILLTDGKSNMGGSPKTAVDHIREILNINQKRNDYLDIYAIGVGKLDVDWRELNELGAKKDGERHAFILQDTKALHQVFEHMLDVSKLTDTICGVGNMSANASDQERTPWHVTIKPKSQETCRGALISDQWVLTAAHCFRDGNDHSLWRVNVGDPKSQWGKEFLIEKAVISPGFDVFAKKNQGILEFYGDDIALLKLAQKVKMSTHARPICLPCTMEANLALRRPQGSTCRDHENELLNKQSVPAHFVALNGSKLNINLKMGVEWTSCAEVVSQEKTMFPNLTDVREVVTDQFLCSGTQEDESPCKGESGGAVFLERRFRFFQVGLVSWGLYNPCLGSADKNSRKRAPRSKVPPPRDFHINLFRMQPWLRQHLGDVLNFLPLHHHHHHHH

[2] = target: T2, human C2 K430A (human, UniProt P06681 21-752)
T2 sequence: T1 sequence with A408S, K410A

[3] = target: T3, human C2 E433A (human, UniProt P06681 21-752)
T3 sequence: T1 sequence with A408S, E413A

[4] = target: T4, human C2 F270A (human, UniProt P06681 21-752)
T4 sequence: T1 sequence with F250A, A408S

B1: RF16-226 (antibody, human IgG4 S228P, lambda)
heavy: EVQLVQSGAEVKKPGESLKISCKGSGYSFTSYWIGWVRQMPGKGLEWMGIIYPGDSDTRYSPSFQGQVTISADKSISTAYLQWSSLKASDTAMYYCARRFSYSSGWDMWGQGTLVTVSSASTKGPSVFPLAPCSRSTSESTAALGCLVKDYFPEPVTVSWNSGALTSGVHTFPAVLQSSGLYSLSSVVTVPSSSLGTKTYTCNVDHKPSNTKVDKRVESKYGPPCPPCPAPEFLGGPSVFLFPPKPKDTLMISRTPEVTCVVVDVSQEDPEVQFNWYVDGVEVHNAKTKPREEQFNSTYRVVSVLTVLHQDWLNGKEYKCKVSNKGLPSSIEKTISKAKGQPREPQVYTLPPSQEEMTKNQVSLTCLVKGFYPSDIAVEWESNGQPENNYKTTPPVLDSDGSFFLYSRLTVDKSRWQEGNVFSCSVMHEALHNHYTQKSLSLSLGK
light: SYELTQPPSVSVSPGQTARITCSGDALTSKYVAWYQQKSGLAPLLVIYEDTRRPSGIPAKFSGSSSGSVATLTISGAHGDDEADYYCYSTDASGHQRVFGGGTKLTVLSQPKAAPSVTLFPPSSEELQANKATLVCLISDFYPGAVTVAWKADGSPVKAGVETTKPSKQSNNKYAASSYLSLTPEQWKSHRSYSCQVTHEGSTVEKTVAPTECS
notes: pH-dependent anti-C2 antibody from a phage display library; also called WT
Kd [1]: 18.8 nM | Kd [2]: 62 nM | Kd [3]: 2.6 nM | Kd [4]: 96.8 nM
